Data published in the RNAGym collection of RNA variant scans (doi:10.1073/pnas.2313332121).

B1: TPR t1 (parent)
chain: GACCAAUCUGCCCUCAGAGCUCGAGAACAUCUUCGGAUGCAGAGGAGGCAGGCUUCGGUGGCGCGAUAGCGCCAACGUCCUCAACCUCCAAUGCAUCCCACCACAUGAUGAUGCCUGAAGAGCCUUGGUUUUUUG

Variants of: B1
Assay: polymerase ribozyme fitness, log enrichment relative to wild type (log ratio); higher = more active; in vitro selection for triplet polymerase activity
Outline: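 The heterodimeric triplet polymerase ribozyme's subunits were each mutagenized into PCR-built libraries and transcribed. Every library was selected once, in triplicate, by annealing with a biotinylated primer, the partner subunit and triplets, incubating frozen at −7 °C, gel-excising extended constructs, capturing on streptavidin beads and running RT-PCR. Input and output libraries were Illumina-sequenced, with genotypes kept only at ≥10 input reads and ≥1 read per output. Fitness, from inverse-variance-weighted replicate averages, is the base-2 logarithm of genotype enrichment over wild-type enrichment.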

| Variant | polymerase ribozyme fitness (log ratio) |
| --- | --- |
| GACCAAUCUGCACUCAGAGCUCGAGAACAUCUUCGGAUGCAGAGGAGGUAGGCUUCGGUGGCGCGAUAGGGCCAACGUCCUCAACCUCCAAUGCAUCCCACCACAUGAUGAUGCCUGAAGAGCCUUGGUUUUUUG [C12A C49U C70G] | -4.56 |
| GACCAAUCUGCACUCAGAGCUCGAGAACAUCUUCGGAUGCAGAGGAGGCAGGCUUCGGUGGCGCGAUAGAGCCAACGUCCUCAACCUCCAAUGCAUCCCACCACAUGAUGAUGCCUGAAGAGCCUUGGUUUUUUG [C12A C70A] | -2.05 |
| GACCAAUCUGCACUCAGAGCUCGAGAACAUCUUCGGAUGCAGAGGAGGUAGGCUUCGGUGGCGCGAUAGCGCCAACGUCCUCAACCUCCAAUGCAUCCCACCACAUGAUGAUCCCUGAAGAGCCUUGGUUUUCUG [C12A C49U G113C U133C] | -3.24 |
| GACCAAUCUGCACUCAGAGCUCGAGAACAUCUUCGGAUGCAGAGGAGGCAGGUUUCGGUGGCGCGAUAGCGCCAACGUCCUCAACCUCCAAUGCAUCCCACCACAGGAUGAUCCCUGAAGAGCCUUCGUUUUUUG [C12A C53U U106G G113C G127C] | -5.83 |
| GACCAAUCUGCACUCAGAGCUCGAGAACAUCUUCGGAUGCAGAGGAGGCAGGCUUCGGUGGCGCGAUAGCGGCAACGUCCUCAACCUCCACUGCAACCCACCACAUGAUGAUGCCUGAAGAGCCUUGGUUUUUUG [C12A C72G A91C U96A] | -2.9 |
| GACCAAUCUGCACUCAGAGCUCGAGAACAUCUUCGGAUGCAGAGGAGGCAGGCUUCGGUGGCGCGAUAGCGGCAACGUCCUCAACCUCCAAUGCAUCCCACCACAUGAUGAUGCCUGAAGAGCCUUGGUUUUCUG [C12A C72G U133C] | -1.17 |
| GACCAAUCUGCACUCAGAGCUCGAGAACAUCUUCGGAUGCAGAGGAGGCAGGGUUCGGUGGCGCGAUAGCGCCAACGUCCUCAACCUCCAAUGCAUCCCACCACAUGAUGAUGCCUGAAGAGCCUUGGUUUUUUG [C12A C53G] | -1.23 |
| GACCAAUCUGCACUCAGAGCUCGAGAACAUCUUCGGAUGCAGAGGAGGCAGGGCUCGGUGGCGCGAUAGCGCCAACGUCCUCAACCUCCAAUGCAUCCCACCACAUGAUGAUGCCUGAAGCGCCUUGGUUUUUUG [C12A C53G U54C A121C] | 1.77 |
| GACCAAUCUGCACUCAGAGCUCGAGAACAUCUUCGGAUGCAGAGGAGGCAGGCUUCGGUGGCGCGAUAGCGCCAACGUCCUCAAACUCCAAUGCAUCCCACCACAUGAUGAUGCCUGAAGAGCCUUGGUUUUUUG [C12A C85A] | -2.59 |
| GACCAAUCUGCACUCAGAGCUCGAGAACAUCUUGGGAUGCAGAGGAGGCAGGCUUCGGUGGCGCGAUAGCGCCAACGUCCUCAACCUCCAAUGCAUCCCACCACAUGAUGAUGCCUGAAAAGCCUUGGUUUUUUG [C12A C34G G120A] | -4.45 |
| GACCAAUCUGCACUCAGAGCUCGAGAACAUCUUCGGAUGCAGAGGAGGCAGGCUUCGGUGGCGCGAUAGAGCCAACGUCUUCAACCUCCAAUGCAUCCCACCACAUGAUGAUGCCUGAAGAGCCUUGGUUUUUUG [C12A C70A C80U] | -2.16 |
| GACCAAUCUGCACUCAGAGCUCGAGAACAUUUUCAGAUGCAGAGGAGGCAGGCUUCGGUGGCGCGAUAGCGCCAACGUCCUCAACCUCCAAUGCAUCCCACCAGAUGAUGAUGCUUGAAGAGCCUUGGUUUUUUG [C12A C31U G35A C104G C115U] | -6.08 |
| GACCAAUCUGCACUCAGAGCUCGAGAACAUCUUCGGAUGCAGAGGAGGCAGGCUUGGGUGGCGCGAUAGCGCCAACGUCCUCAUCCUCCAAUGCAUCCCACCACAUGAUGAUGCCUGAAGAGCCUUGGUUUUUUG [C12A C56G A84U] | -1.85 |
| GACCAAUCUGCACUCAGAGCUCGAGAACAUCUUCGGAUGCAGAGGAGGCAGGCUUCGGUGGCGCGAUAGCGCCAACGUCCUGAACCUCCAAUGCAUCCCACCACAUGAUGAUGCCUGAAGAGCCUUGGUUUUUUG [C12A C82G] | -1.17 |
| GACCAAUCUGCACUCAGAGCUCGAGAACAUCUUCGGAUGCAGAGGAGGCAGGCUUAGGUGGCGCGAUAGCGCCAACGUCCUCAACCUCCAAUGCAUCCCACCACAUGAUGAUGCCUGAAGAGUCUUGGUUGUUUG [C12A C56A C123U U131G] | 0.231 |
| GACCAAUCUGCACUCAGAGCUCGAGAACAUCUUCGGAUGCAGAGGAGGCAGGCUUCGGUGGCGCGAUAGCGUCAACGUCCUCAACCUCCAAUGCAUCCCACCACAUGAUGAUCCCUGAAGAGCCUUGGUUUUUUG [C12A C72U G113C] | -4.5 |
| GACCAAUCUGCACUCAGAGCUCGAGAACAUCUUCGGAUGGAGAGGAGGCAGGCUUCGGUGGCGCGAUAGCGCCAACGUCCUCAACCUCCAAUGCAUCCCACCACAUGAUGAUGCCUGAAGAGCCUUGGUUUUUUG [C12A C40G] | -1.7 |
| GACCAAUCUGCACUCAGAGCUCGAGAACAUCUUCGGAUGUAGAGGAGGCAGGCUUCGGUGGCGCGAUAGCGCCAACGUCCUCAACCUCCAAUGCAUCCCACCACAUGAUGAUGCCUGAAGAGCCUUGGUUUUUUG [C12A C40U] | -1.32 |
| GACCAAUCUGCACUCAGAGCUCGAGAACAUUUUCGGAUGCAGAGGAGGCAGGCUUCGGUGGCGCGAUAGCGCCAACGUCCUCCACCUCCAAUGCAUCCCACCACAUGAUGAUGCCUGAAGAGCCUUGGUUUUUUG [C12A C31U A83C] | -5.06 |
| GACCAAUCUGCACUCAGAGCUCGAGAACAUCUUCGGAUGCAGAGGAGGCAGGCUUCGGUGGAGCGAUAGCGCCAACGUCCUCAACCUCCAAUGCAUCCCACCACAUGAUGAAGCCUGAAGAGGCUUGGUUUUUUG [C12A C62A U112A C123G] | -1.09 |
| GACCAAUCUGCACUCAGAGCUCGAGAACAUCUUCGGAUGCAGAGGAGGCAGGCUUCGGUGGCGCGAUAGCGCCAACGUCUUCAUCCUCUAAUGCAUCCCACCACAUGAUGAUGCCUGAGGAGACUUGGUUUUUUG [C12A C80U A84U C89U A119G C123A] | 0.231 |

| Variant | polymerase ribozyme fitness (log ratio) |
| --- | --- |
| GACCAAUCUGCACUCAGAGCUCGAGAACAUCUUCGGAUGCAGAGGAGGCAGGCUUCGGUGGCGCGAUAGCGCAAACGUCCUCAACCUCCAAUGCAUCCCACCACAUGAUGAUGCCUGAACUGCCUUGGUUUUUUG [C12A C73A G120C A121U] | 2.42 |
| GACCAAUCUGCACUCAGAGCUCGAGAACAUCUUCGGAUGCAGAGGAGGCAGGCUUCGGUGGCGCGAUAGCGCCAACGUCAUCAACCUCCAAUGCAUCCCACCACAUGAUGAUGCCUGAAUAGCCUUGGUUUUUUG [C12A C80A G120U] | -0.968 |
| GACCAAUCUGCACUCAGAGCUCGAGAACAUCUUCGGAUGCAGAGGAGGCAGGCUUCGGUGGCGCGAUAGCGCCAACGUCCUCAACCUGCAAUGCAUCCCACCACAUGAUGAUGCCUGAAGAGCCUUGUAUUUUUG [C12A C88G G128U U129A] | -4.77 |
| GACCAAUCUGCACUCAGAGCUCGAGAACAUCUUCGGAUGCAGAGGAGGCAGGCUUCGGUGGCGCGAUAGCGCCAACGUCCUCAACCUUCAAUGCAUCCCACCACAUGAUGAUGCCUGAAGAGCCUUGGUUUUUUG [C12A C88U] | -0.873 |
| GACCAAUCUGCACUCAGAGCUCGAGAACAUCUUCGGAUGCAGAGGAGGUAGGCUUCGGUGGCGCGAUAGCGCCAACGUCCUCAACCUCCAAUGCAUCCCACCACAUGAAGAUGCCAGAAGAGGCUUGGUUUUUUG [C12A C49U U109A U116A C123G] | -6.73 |
| GACCAAUCUGCACUCAGAGCUCGAGAACAUCUUCGGAUGCAGAGGAGGUAGGCUUCGGUGGCGCGAUACCGCCAACGUCGUCAACCUCCAAUGCAUCCCACCACAUGAUGAUGCGUGAAGAGCCUUGGUUUUUUG [C12A C49U G69C C80G C115G] | -8.79 |
| GACCAAUCUGCACUCAGAGCUCGAGAACAUCUUCGGAUGCAGAGGAGGCAGGAUUCGGUGGCGCGAUAGCGCCAACGUCCUCAACCUCCAAUGCAUCCCACCACAUGGUGAUGCCUGAAGAGCCUUGGUUUUUUG [C12A C53A A108G] | -2.7 |
| GACCAAUCUGCACUCAGAGCUCGAGAACAUCUUCGGAUGCAGAGGAGGCAGGCUUUGGUGGCGCGAUAGCGCCAACGUCCUCAACCUCCAAUGCAUCCCACCACAUGAUGAUGCCUGAAGAGCCUUGGUUUUUUG [C12A C56U] | 0.0114 |
| GACCAAUCUGCACUCAGAGCUCGAGAACAUCUUCGGAUGCAGAGGAGGCAGGCUUAGGUGGCGCGAUAGCGCCAACGUCCUCAACCUCCAAUGCAUCCCACCACAUGAUGAUGCCUGAAGAGCCUUGGUUUUUUG [C12A C56A] | -1.02 |
| GACCAAUCUGCACUCAGAGCUCGAGAACAUCUUCGGAUGCAGAGGAGGCAGGCUUAGGUGGUGCGAUAGCGCCAACGUCCUCAACCUCCAUUGCAUCCCACCACAUGAUGAUGCCUGAAGAGCCUUGCUUUUUUG [C12A C56A C62U A91U G128C] | -5.72 |
| GACCAAUCUGCACUCAGAGCUCGAGAACAUCUUUGGAUGCAGAGGAGGCAGGCUUCGGUGGCGCGAUAGCGCCAACGUCCUCAACCUCCAAUGCAUCCCACCACAUGAUGAUGCCUGAAGAGCCUUGGUUUUUUG [C12A C34U] | -4.77 |
| GACCAAUCUGCACUCAGAGCUCGAGAACAUCUUCGGAUGCAGAGGAGGCAGGCUUCGGUGGCGCGAUAGCGUCAACGUCCUCAACCUCCAAUGCAUCCCACUACAUGAUGAUGGCUGAAGAGCCUUGGUUUUUUG [C12A C72U C102U C114G] | -5.72 |
| GACCAAUCUGCACUCAGAGCUCGAGAACAUCUUCGGAUGCAGAGGAGGGAGGCUUCGGUGGCGCGAUAGCGCCAACGUCCUCAACCUCCAAUGCAUCCCACCACAUGACGUUGCCUGAAGAGCCUUGGUUUUUUG [C12A C49G U109C A111U] | -6.35 |
| GACCAAUCUGCACUCAGAGCUCGAGAACAUCUUCGGAUGCAGAGGAGGCAGGCUUCGGUGGCGCGAUAGCGCCAACGUCCUCAACUUCCAAUGCAUCCCACCACAUGAUGAUGCCUGAAGAGCCUUGGUUUUUUG [C12A C86U] | -0.885 |
| GACCAAUCUGCACUCAGAGCUCGAGAACAUCUUCGGAUGCAGAGGAGGCAGGCUUCGGUGGCGCGAUAGCGACAACGUCCUCAACCUCCAAUGCAUCCCACCACAUGAUGAUGCCUGAACAGCCUUGGUUUUUUG [C12A C72A G120C] | 1.29 |
| GACCAAUCUGCACUCAGAGCUCGAGAACAUCUUCGGAUGCAGAGGAGGCAGGCUUCGGUGGCGCGAUAGUGCCAACGGCCUCAACCUCCAAUGCAUCCCACCACAUGAUGAUGCCUGAAGAGCCUUGGUUUUUUG [C12A C70U U78G] | -1.07 |
| GACCAAUCUGCACUCAGAGCUCGAGAACAUCUUCGGAUGCAGAGGAGGCAGGGUUCGGUGGCGCGAUAGCGCCAACGUCCUCAACCUCCAACGCAUCCCACCACAUGAUGAUGCCUGAAGAGCCUUGGUUUUUUG [C12A C53G U92C] | -1.45 |
| GACCAAUCUGCACUCAGAGCUCGAGAACAUCUUCGGAUGCAGAGGAGGCAGGCUUCGGUGGGGCGAUAGCGCCAACGUCCUCAACCUCCAAUGCAUCCCACCACAUGAUGAUGCCUGAAGAGCCUUGGUUUUUUG [C12A C62G] | -0.737 |
| GACCAAUCUGCACUCAGAGCUCGAGAACAUCUUCGGAUGCAGAGGAGGCAGGCUUCGGUGGAGCGAUAGCGCCAACGGCCUCAACCUCCAAUGCAUCCCACCACAUGAUGAUGCCUGAAGAGCCUUGGUUUUUUG [C12A C62A U78G] | -2.28 |
| GACCAAUCUGCACUCAGAGCUCGAGAACAUCUUCGGAUGCAGAGGAGGCAGGCUUUGGUGGCGCGAUAGCGCCAACGUCCUCAACCUCCAAUGGAUCCCACCACAUGAUGAUGCCUGAAGAGCCUUGGUUUUUUG [C12A C56U C94G] | -2.21 |
| GACCAAUCUGCACUCAGAGCUCGAGAACAUCUUCGGAUGCAGAGGAGGCAGGCUUCGGUGGCGCGAUAGCGCCAACGUACUCAACCUCCAAUGCAUCCCACCACAUGAUGAUGCCUGAAGAGCCUUGGUUUUUUG [C12A C79A] | -1.35 |
